In this assay the target is T1, mouse FLT1-FC chimeric protein with His-tag (mouse, UniProt P35969 23-759).
T1 sequence (looked up): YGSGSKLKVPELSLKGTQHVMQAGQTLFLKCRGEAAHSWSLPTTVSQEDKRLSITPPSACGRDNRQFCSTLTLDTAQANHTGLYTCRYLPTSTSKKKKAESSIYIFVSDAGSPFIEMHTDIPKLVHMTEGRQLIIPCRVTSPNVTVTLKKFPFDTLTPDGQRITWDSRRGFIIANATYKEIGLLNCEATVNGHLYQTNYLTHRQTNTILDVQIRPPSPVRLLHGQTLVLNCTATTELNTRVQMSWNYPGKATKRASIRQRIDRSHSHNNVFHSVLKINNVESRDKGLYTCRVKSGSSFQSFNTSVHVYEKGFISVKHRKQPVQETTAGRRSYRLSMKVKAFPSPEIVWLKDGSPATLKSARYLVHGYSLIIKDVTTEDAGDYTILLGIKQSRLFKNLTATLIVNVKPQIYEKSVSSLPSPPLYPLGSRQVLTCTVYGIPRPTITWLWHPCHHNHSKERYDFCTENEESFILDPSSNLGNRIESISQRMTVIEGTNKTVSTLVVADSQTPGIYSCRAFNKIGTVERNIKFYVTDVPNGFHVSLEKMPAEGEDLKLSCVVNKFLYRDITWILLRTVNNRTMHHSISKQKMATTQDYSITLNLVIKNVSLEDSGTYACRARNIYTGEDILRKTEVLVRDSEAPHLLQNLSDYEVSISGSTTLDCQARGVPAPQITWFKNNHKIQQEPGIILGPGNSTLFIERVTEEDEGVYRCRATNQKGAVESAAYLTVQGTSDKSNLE
As to the kind of experiment: ELISA. (An ELISA detects its analyte on a solid surface through an enzyme-linked reagent.)

B1: recombinant mouse PlGF2 (ligand, UniProt P49764 19-158, looked up)
chain: VHSQGALSAGNNSTEVEVVPFNEVWGRSYCRPMEKLVYILDEYPDEVSHIFSPSCVLLSRCSGCCGDEGLHCVPIKTANITMQILKIPPNRDPHFYVEMTFSQDVLCECRPILETTKAERRKTKGKRKRSRNSQTEEPHP
With B1, the binding result is listed as “binds”.

The values are drawn from doi:10.1101/609735 (bioRxiv, 2019).
